Assay results reported in the nanobody polyreactivity screen of Harvey et al. (2022).

Test: yeast display, Sf9 membrane polyspecificity reagent, FACS + sequencing; frameworks hold sequencing errors
Summary of the method: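 Nanobodies from a synthetic yeast display library (Saccharomyces cerevisiae BJ5465), induced 36–48 hours with galactose, were stained 1 hour at 4 °C with 10% biotinylated, detergent-solubilized Sf9 membrane reagent, enriched on streptavidin microbeads, then FACS-sorted. Anti-HA (expression) and streptavidin (reagent binding) fluorescence set low and high (top ~1%) gates. Polyreactivity labels come from the gate of origin. Genes were colony-PCR amplified, MiSeq 2 × 250 sequenced and filtered by CDR length.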

Sequence | polyreactivity (PSR sort gate)
QVQLVESGGGLVQAGGSLRLICAASGLTFNYYVMGWYRQAPGKERELVAAISYSGGRTYYADSVKGRFTISRDNANNTVYLQMNSLKPEDTAVYFCNVTGHRNSFIYYGGYEYWGQGTQVTVSS | high polyreactivity
QVQLVESGGGLVQAGGSLRLICAASGLTFRYYAMGWYRQAPGKERELVAAITRGGSTYYADSVKGRFTISRDNAKNTVYLQMNSLKPEDTAVYYCAAYDVRYNTYDYDYWGQGTQVTVSS | high polyreactivity
QVQLVESGGGLVQAGGSLRLICAASGLTFSIYAMGWYRQAPGKERELVAAITGRGGRTYYADSVKGRFTISRDNAKNTVYLQMNSLKPEDTAVYYCAARYRGTDFDYWGQGTQVTVSS | high polyreactivity
QVQLVESGGGLVQAGGSLRLICAASGLTFSRYAMGWYRQAPGKERELVAAITWSGSSTYYADSVKGRFTISRDKAKNTVYLQMNSLKPEDTAVYYCAARYGYSRGPYYRSDYWGQGTQVTVSS | high polyreactivity
QVQLVESGGGLVQAGGSLRLICAASGLTFYVNAMGWYRQAPGKERELVADISSGVSTNYADSVKGRFTISRDNAKNTVYLQMNSLKPEDTAVYYCNVERYKKLSRTHNYRRYNYWGQGTQVTVSS | high polyreactivity
QVQLVESGGGLVQAGGSLRLICAASGNIFVPNAMGWYREAPGKEWELVAAIRRGGSTNYADSVKGRFTISRDNAKTTVYFQMNSLKPEDTAVYYCAKSRVSFTDLEGYYWGQGTQVTVSS | low polyreactivity
QVQLVESGGGLVQAGGSLRLICAASGNTFYGYAMGWSRPAPGKERELVASITLSGDSTYYADSVKGRFTISRDNAKNTVYLQMNSLKPEDTAVYYCAGVYTYPLGYYHYTYDYWGQGTQVTVSS | low polyreactivity
QVQLVESGGGLVQAGGSLRLICAASGNTFYGYAMGWYRQAPGKERELVASITLSGDSTYYADSVKGRFTISRDNAKNTVYLQMNSLKPEDTAVYYCNRARHQYSRWHGGYYYWGQGTQVTVSS | low polyreactivity
QVQLVESGGGLVQAGGSLRLICAASGRIFALYAMGWYRQAPGKEREFVATITRGASTNYADSVKGRFTISRDNAKNTVYLQMNSLKPVDTAVYYCAAAGYKAAGRVVASYYWGQGTQVTVSS | high polyreactivity
QVQLVESGGGLVQAGGSLRLICAASGRIFASYTMGWYRQAPGKERELVAGISRRGGSTYYADSVKGRFTISRDNAKNTVYLQMNSLKPEDTAVYYCAAVSSVFSVRYDYWGQGTQVTVSS | high polyreactivity
QVQLVESGGGLVQAGGSLRLICAASGRIFDYYGMGWYRQAPGKETELVATIRRGGSTYYADSVKGRFTISRDNAMNTVYLQMNSLKPEDTAVYYCAAPGYSWYTYRRYDYWGQGTQVTVSS | high polyreactivity
QVQLVESGGGLVQAGGSLRLICAASGRIFFHYAMGWYRQAPGKVRELVAVISSTGGITNYADSVKGRFTISRDNAKNTVYLQMNSLKPEDTAVYYCNTVPRPFERYGYWGQGTQVTVSS | low polyreactivity
QVQLVESGGGLVQAGGSLRLICAASGRIFKYNAMGWDRQAPGTERELVAAISSSGGSTYYADSVKGRFTISRDNAKYTVYLLMNSLKPEDTAVYYCAARFNSGVYRYDYWGQGTQVTVSS | high polyreactivity
QVQLVESGGGLVQAGGSLRLICAASGRIFNRNAMGWYRQAPGKERELVASISSGGRTNYADSVKGRFTISRDNAKNTVYLQMNSLKPEDTAVYYCAAKSPRILLDYWGQGTQVTVSS | low polyreactivity
QVQLVESGGGLVQAGGSLRLICAASGRIFRGYAMGWYRQAPGKERELVAAISGRGGRTNYADSVKGRFTISRDNAKNTVYLQMNSLKPEDTAVYYCATVPYTASRYEYWGQGTQVTVSS | high polyreactivity
QVQLVESGGGLVQAGGSLRLICAASGRIFRHYAMGWYRQAPGKEREFVAAISRSGGSTYYADSVKGRFTISRDNAKNTVYLQMHSLKPEDTAVYYCYARHRYTGIRFFQPYDYWGQGTQVTVSS | low polyreactivity
QVQLVESGGGLVQAGGSLRLICAASGRIFRYNARGWYRQAPGKERELVAAISSGGSTNYADSVKGRFTTSRDNAKNTVYLQMNSLKPEDTAVYYCNAESVHRYPGWGYDYWGQGTQVTVSS | low polyreactivity
QVQLVESGGGLVQAGGSLRLICAASGRIFTAYVMGWYRQAPGKERQLVAAITEGGGNTYYADSVKGRFTISRDNAKNTVYLQMNSLKPEDTAVYYCAARYLVNGRKRLYYWGQGTQVTVSS | high polyreactivity
QVQLVESGGGLVQAGGSLRLICAASGRIFVGNTMGWYRQAPGKERELVAAITSSGGSTYYADSVKGRFTISRDNAKNTVYLQMNSLKPEDTAVYYCAARTREYQWRYYYWGQGTQVTVSS | high polyreactivity
QVQLVESGGGLVQAGGSLRLICAASGRIFVPYAMGWYRQAPGKERELVAAITYDGGSTYYADSVKGRFTISRDNAKNTVYLQMNSLKPEDTAVYYCAADYGYSQYILGQFRLEELDYWGQGTQVTVSS | low polyreactivity
QVQLVESGGGLVQAGGSLRLICAASGRIFVRNAMGWSRQAPGKERELVAAITSGGRTYYADSVKGRFTISRDNAQNTVYVQMNSLKPEDTAVYYCAARAGNASAIDVAYWGQGSQVTVSS | low polyreactivity
QVQLVESGGGLVQAGGSLRLICAASGRIINGYAMVWYRQAPGKERELVAANSVSGGSTYYADSVKGRFTISRDNAKNTVYLQMNSMKPEDTAVYYCNARIGSRSYAWISTRYDYWGQGNQVTVSS | high polyreactivity

Sequence | polyreactivity (PSR sort gate)
QVQLVESGGGLVQAGGSLRLICAASGRISVFYTMGWYRQAPGKERELVAVIRTSGGRTNYADSVKGRFTISRDNAKNTVYLQMNSLKPEDTAVYYCAARVVRYGYKYYYWGQGTQVTVSS | low polyreactivity
QVQLVESGGGLVQAGGSLRLICAASGRTFAINTMGWYRQAPGKERELVATISGSAGNTYYADSVKGRFTISRDNAKNTVYVQMNSLKPEDSAVYSCAARQRKARQIVLLDYWGQGTQVTVSS | high polyreactivity
QVQLVESGGGLVQAGGSLRLICAASGRTFARYTMGWYRQARGKERELVASITRGGSTYYADSVKGRFTISRDNAKITVYLQMYSLKPEDSAVYYCNAVYIVGGDWGQGTQVTVSS | high polyreactivity
QVQLVESGGGLVQAGGSLRLICAASGRTFGKYAMGWYRQAPGKEMQLVAAITRRGGSTFYADSVKGRFRISRDNAKNTVYLQMNSLKPEDTAVYYCAARSTVGPQYGVRFNYWGQGTQVTVSS | high polyreactivity
QVQLVESGGGLVQAGGSLRLICAASGRTFILYTMGWYRQAPGKERELVAAITTGGSTSYADSVKGRFTISRDNAKNTVYLQMNSLKPEDTAVYNWAADTVGYSWRWFTWYEMGYWGQGTQVTVSS | low polyreactivity
QVQLVESGGGLVQAGGSLRLICAASGRTFRFYAMGWYRQAPGKERELVAAINYGGGNTYYADSVKGRFTISRDNAKNTVYLQMNSLKADDTAVYYCAAQYYYRARWFPYDYWGQGTQVTVSS | high polyreactivity
QVQLVESGGGLVQAGGSLRLICAASGRTFRVYAMGWYRQAPGKERELVASISRRGASTYYADSVKGRFTISRDIAKNTVYLQMNSLKPEDTAVYYCAADRRYYSVSPNTEFEYWGQGTQETVSS | high polyreactivity
QVQLVESGGGLVQAGGSLRLICAASGRTFRYYTMGWYRQAPGKEREFVAAISSTGGTYYADSVKGRFTNSRDNAKNTVYFQMNSLKPEDTAVYYWAAYRWGILSAYYYAWYGYWGQGTQVTVSS | low polyreactivity
QVQLVESGGGLVQAGGSLRLICAASGRTFSSNAMGWYRPAPGNERELVAAISTSGGRTYYADSVKGRCTISRDNAKNTVYLQMNSLKPEDTAVYYGAAEYVGTGTPDDYAYWGQGTQVTVSS | high polyreactivity
QVQLVESGGGLVQAGGSLRLICAASGRTFVANTMGWYRQAPGKERELVATITWNGGSTYYADSVKGRFTISRDNAKNTVYLQMNSLKPEDTAVYYCAKEAYFRRYYVYRYGYWGQGTQVTVSS | high polyreactivity
QVQLVESGGGLVQAGGSLRLICAASGRTFYPNAMGWYRPAPGKERELVAAINSGDSTSYADSVKGRFTIARDNAKNTVYLQMNRLKPEDTAVYYCAAAEWYQFFIYRYTYEYWGQGTQVTVSS | low polyreactivity
QVQLVESGGGLVQAGGSLRLICAASGRTFYVNAMGWYRQAPGKERELVATITDRGGRTYYADSVKGRFTISRDNAKNTVYLQMNSLKPEDTAVYYCAATRWYEVDYWGQGTQVTVSS | low polyreactivity
QVQLVESGGGLVQAGGSLRLICAASGRTVYRYAMGWYRQAPGKERELVAAITTSGGSTYYADSVKGRFTISRDNAKKTVNIQMNSLKPEDTAVYYCARRVYGYYIPYNYWGKGTQVTVSS | high polyreactivity
QVQLVESGGGLVQAGGSLRLICAASGRTYRLYAMGWYRQAPGKERELVAAISYSDGRTYYADSVKGRFTISRDNAKNTVYLQMNSLKPEDTALYYCAAETLYVSPYFYVVQYDYWGQGTQVTVSS | high polyreactivity
QVQLVESGGGLVQAGGSLRLICAASGSIFDQNDMGWYRQAPGKERELVAAISSGSSTNYADSVKGRFTISRDNAKNTVYLQMNSLKAEDTAGYYCAVTSPYSQGYSFWGADSREYWGQGTQVTVSS | low polyreactivity
QVQLVESGGGLVQAGGSLRLICAASGSIFFGNAMGWYRQAPGKERELDAAITLRGGSTYYADSVKGRFTISRDNAKNTVYLQMNSLKPEDTAVYYCNAVSKRYGYGYWGQGTQVTVSS | high polyreactivity
QVQLVESGGGLVQAGGSLRLICAASGSIFGDNAMGWYRQAPGKERELVARISSGGNTYYADSVKGRFTISRDNAKNTVYLQMNSLKPEDTAVYYCNVYRYDGDYWGQGTQVTVSS | high polyreactivity
QVQLVESGGGLVQAGGSLRLICAASGSIFGDTAMAWYSQAPGKERELVATISSSDASTYYADSVKGRFTSSRDNAKNTVYLQMNSVKREDSAVYYCAKEVNAGYHVWYDYWGEGTQVTVSS | low polyreactivity
QVQLVESGGGLVQAGGSLRLICAASGSIFGRYAMGWYRQAPGKETELVAAINDDSGRTYYADSVKGRFTISRDNAKNTVYLQMNSLKPEDTAVYYCAADGYVLWYSFDYWGQGTLVTVSS | high polyreactivity
QVQLVESGGGLVQAGGSLRLICAASGSIFGYNAMGWYRQAPGKERELVAAIRISTDNTYYADSVKGRFTISRDNAKNTVYLQMNSLKPEDTAVYYCAASSQTQYGDNYWGQGTQVTVSS | high polyreactivity
QVQLVESGGGLVQAGGSLRLICAASGSIFGYYAMGWYRQAPGKERELVAAISYSGSRTYYADSVKGRFTISRDNAKNTVYLQMNSLKPEDTAVYYCAARGSRLYSSWRGDYWGQGTQVTVSS | high polyreactivity
